Target: myeloperoxidase (MPO), two subunits MPOα and MPOβ (human (endogenous in HL-60))
Assay: co-IP; anti-MPO-coated magnetic beads with HL-60 NET extract; H3.1-nucleosomes left after the IP quantified with the H3.1-nucleosome immunoassay, depletion against the unprocessed sample

percent depletion of H3.1-nucleosomes after IP anti-MPO: 30%
Substance: H3.1-nucleosomes (nucleosomes containing the histone variant H3.1) of NETs (from UniProt P68431 1-136; P62805 1-103; P0C0S8 1-130; P62807 1-126) (complex)

From paper PMC12327617
